The source of these data is patent US20030170807A1 (Johns Hopkins, published 2003).

Test [1] has as its target mGluR of mouse cerebellar Purkinje cells (mouse) (UniProt P97772). Put plainly: cell-based or functional assay.
For test [2], the target named is T1, GKAP 1, native, from rat brain extracts (rat, UniProt P97836 1-992).
T1 construct: mature
T1 sequence (looked up): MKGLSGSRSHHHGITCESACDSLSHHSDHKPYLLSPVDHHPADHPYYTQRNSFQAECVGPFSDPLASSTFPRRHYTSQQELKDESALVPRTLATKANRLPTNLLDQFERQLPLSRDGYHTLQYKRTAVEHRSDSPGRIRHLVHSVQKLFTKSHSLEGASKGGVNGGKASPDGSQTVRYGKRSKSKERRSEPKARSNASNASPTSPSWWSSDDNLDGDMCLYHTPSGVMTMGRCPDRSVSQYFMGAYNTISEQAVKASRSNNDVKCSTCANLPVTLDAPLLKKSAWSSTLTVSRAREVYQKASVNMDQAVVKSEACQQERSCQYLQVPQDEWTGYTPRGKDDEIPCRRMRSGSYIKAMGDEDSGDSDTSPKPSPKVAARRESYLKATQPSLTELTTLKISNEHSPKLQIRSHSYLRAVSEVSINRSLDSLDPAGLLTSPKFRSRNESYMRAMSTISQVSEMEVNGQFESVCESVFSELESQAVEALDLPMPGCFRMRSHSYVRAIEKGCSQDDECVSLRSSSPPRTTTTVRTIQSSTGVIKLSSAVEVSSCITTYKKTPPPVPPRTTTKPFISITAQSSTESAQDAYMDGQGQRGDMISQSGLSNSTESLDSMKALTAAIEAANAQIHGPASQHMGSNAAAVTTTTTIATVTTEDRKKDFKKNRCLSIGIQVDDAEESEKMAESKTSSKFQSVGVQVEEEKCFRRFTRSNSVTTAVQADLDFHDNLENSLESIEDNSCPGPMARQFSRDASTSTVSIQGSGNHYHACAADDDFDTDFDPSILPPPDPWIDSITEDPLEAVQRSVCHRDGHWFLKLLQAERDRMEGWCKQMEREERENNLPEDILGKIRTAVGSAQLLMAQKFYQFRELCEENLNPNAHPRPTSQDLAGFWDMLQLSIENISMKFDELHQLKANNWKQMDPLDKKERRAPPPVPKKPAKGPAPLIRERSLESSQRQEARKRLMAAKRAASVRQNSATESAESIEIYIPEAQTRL
Put plainly: GST pull-down from rat brain extracts.

Chain of mGluR of mouse cerebellar Purkinje cells (mouse) (P97772 21-1199): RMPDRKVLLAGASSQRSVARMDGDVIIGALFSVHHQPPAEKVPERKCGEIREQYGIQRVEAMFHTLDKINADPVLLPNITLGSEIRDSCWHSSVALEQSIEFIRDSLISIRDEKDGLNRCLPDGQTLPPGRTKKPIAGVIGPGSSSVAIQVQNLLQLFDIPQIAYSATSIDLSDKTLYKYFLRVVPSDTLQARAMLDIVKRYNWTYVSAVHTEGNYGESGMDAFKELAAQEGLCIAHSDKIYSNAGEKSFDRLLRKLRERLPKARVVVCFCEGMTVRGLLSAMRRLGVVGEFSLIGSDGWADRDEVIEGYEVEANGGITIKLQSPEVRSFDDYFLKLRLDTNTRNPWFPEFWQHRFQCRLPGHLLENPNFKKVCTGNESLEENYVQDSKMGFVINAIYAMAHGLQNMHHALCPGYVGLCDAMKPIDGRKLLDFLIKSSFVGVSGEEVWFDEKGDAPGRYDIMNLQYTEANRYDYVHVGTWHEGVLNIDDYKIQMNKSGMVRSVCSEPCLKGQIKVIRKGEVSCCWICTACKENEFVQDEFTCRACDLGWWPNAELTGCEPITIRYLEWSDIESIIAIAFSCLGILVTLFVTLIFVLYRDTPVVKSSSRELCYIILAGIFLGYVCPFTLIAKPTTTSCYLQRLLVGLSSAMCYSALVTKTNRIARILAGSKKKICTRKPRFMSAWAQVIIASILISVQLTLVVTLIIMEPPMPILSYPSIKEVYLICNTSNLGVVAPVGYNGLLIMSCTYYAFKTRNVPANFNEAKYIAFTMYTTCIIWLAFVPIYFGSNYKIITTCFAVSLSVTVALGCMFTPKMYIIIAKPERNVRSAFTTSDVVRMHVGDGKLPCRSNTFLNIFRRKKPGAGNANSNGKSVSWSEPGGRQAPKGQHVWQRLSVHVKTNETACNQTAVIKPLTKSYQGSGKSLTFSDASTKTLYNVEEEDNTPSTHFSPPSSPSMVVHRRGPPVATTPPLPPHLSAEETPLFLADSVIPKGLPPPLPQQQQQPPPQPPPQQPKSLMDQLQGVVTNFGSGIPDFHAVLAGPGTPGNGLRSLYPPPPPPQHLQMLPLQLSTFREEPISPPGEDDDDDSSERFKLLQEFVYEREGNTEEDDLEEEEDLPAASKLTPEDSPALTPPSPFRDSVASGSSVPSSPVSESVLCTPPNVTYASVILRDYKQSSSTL

“IEG form of Homer 1: 186 amino acid amino-terminal fragment of Homer 1b (pRK5 Homer 1 IEG) (from UniProt Q9Z2Y3 1-198)”: in test [1], the mGluR-evoked Ca+2 response, amplitude was 170 nM and the mGluR-evoked Ca+2 response, latency amounted to 10.5 s.

B1: GST-GKAP(carboxy-terminal): carboxy-terminal 76 amino acids of GKAP1a fused to GST (other, UniProt P97836-5 591-666, looked up)
chain: MDPLDKKERRAPPPVPKKPAKGPAPLIRERSLESSQRQEARKRLMAAKRAASVRQNSATESAESIEIYIPEAQTRL
notes: domain: carboxy-terminal 76 amino acids; not shown: glutathione-S-transferase, fusion partner
For the molecule B1, the binding result in test [2] is “no binding”.
